Test results published in the RNAGym collection of RNA variant scans (doi:10.1093/molbev/msab373).

B1: Azoarcus group I ribozyme (parent)
chain: GUGCCUUGCGCCGGGAAACCACGCAAGGGAUGGUGUCAAAUUCGGCGAAACCUAAGCGCCCGCCCGGGCGUAUGGCAACGCCGAGCCAAGCUUCGGCGCCUGCGCCGAUGAAGGUGUAGAGACUAGACGGCACCCACCUAAGGCAAACGCUAUGGUGAAGGCAUAGUCCAGGGAGUGGCGAAAGUCACACAAACCGG

Variants of: B1
Assay: reverse-splicing fitness (ratio to wild type); higher = more active; in vitro selection; Mg2+ level not given
Summary of the method: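 An in vitro group I ribozyme library with randomized positions was T7-transcribed and gel-purified. In triplicate, 10 pmol RNA in EPPS pH 7.5 was reacted with 50 pmoles of a 30-nt RNA substrate for 1 h at 37 °C across several added MgCl2 levels (1–48 mM), then stopped with EDTA. Products were reverse transcribed from a substrate-complementary primer, PCR-amplified and sequenced (HiSeq 4000). Fitness is a variant's read proportion after selection over that before, normalised to wild type.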
C82G A111C A145C C150U C169G gave a reverse-splicing fitness of 0.00777.
With C82G A111C A145C C150U C169U the reverse-splicing fitness was 0.0113.
Work on C82G A111C A145U C150U U176A yielded a reverse-splicing fitness of 0.0841.
Variant C82G A111C A145U C150U U176G has a reverse-splicing fitness of 0.0297.
In the case of C82G A111C A145U C150U U176C, the reverse-splicing fitness is reported as 0.0883.
C82G A111C A145U C169G U176G showed a reverse-splicing fitness of 0.00766.
In the case of C82G A111C A145U C169G U176A, the reverse-splicing fitness is reported as 0.014.
In the case of C82G A111C A145U C169G U176C, the reverse-splicing fitness is reported as 0.0169.
In the case of C82G A111C A145U C169U U176A, the reverse-splicing fitness is reported as 0.0168.
Variant C82G A111C A120U A145U C150G C169U U176G has a reverse-splicing fitness of 0.00234.
Work on C82G A111C A120U A145U C150G C169U U176A yielded a reverse-splicing fitness of 0.00309.
For C82G A111C A120U A145U C150G C169U U176C, the reverse-splicing fitness was 0.00292.
With C82G A111C A120U A145U C169A U176C the reverse-splicing fitness was 0.00242.
C82G A111C A120U A145U C169A U176A showed a reverse-splicing fitness of 0.00261.
C82G A111C A120U A145U C169A U176G showed a reverse-splicing fitness of 0.00195.
Variant C82G A111C A120U A145U C150G C169A has a reverse-splicing fitness of 0.00457.
C82G A111C A120U A145U C150G C169U showed a reverse-splicing fitness of 0.00326.
In the case of C82G A111C A120U A145U C150G C169G, the reverse-splicing fitness is reported as 0.00414.
In the case of C82G A111C A120U A145U C150U C169U U176A, the reverse-splicing fitness is reported as 0.0031.
For C82G A111C A120U A145U C150U C169U U176C, the reverse-splicing fitness was 0.00311.
With C82G A111C A120U A145U C150U C169U U176G the reverse-splicing fitness was 0.00235.
Variant C82G A111C A145G C169U U176A has a reverse-splicing fitness of 0.0152.
In the case of C82G A111C A145G C169U U176G, the reverse-splicing fitness is reported as 0.00729.
C82G A111C A145G C169U U176C gave a reverse-splicing fitness of 0.0148.
Variant C82G A111C A145C C150G C169A U176C has a reverse-splicing fitness of 0.00828.
C82G A111C A145C C150G C169A U176A showed a reverse-splicing fitness of 0.00825.
C82G A111C A145C C150G C169A U176G showed a reverse-splicing fitness of 0.00732.
In the case of C82G A111C A145C C150G C169G U176G, the reverse-splicing fitness is reported as 0.00664.
Variant C82G A111C A145C C150G C169G U176C has a reverse-splicing fitness of 0.0101.
In the case of C82G A111C A145C C150G C169G U176A, the reverse-splicing fitness is reported as 0.00893.
C82G A111C A145C C150U C169A U176A gave a reverse-splicing fitness of 0.0156.
Variant C82G A111C A145C C150U C169A U176G has a reverse-splicing fitness of 0.00839.
In the case of C82G A111C A145C C150U C169A U176C, the reverse-splicing fitness is reported as 0.0132.
For C82G A111C A145C C150U U176C, the reverse-splicing fitness was 0.044.
Variant C82G A111C A145C C150U U176A has a reverse-splicing fitness of 0.0341.
Variant C82G A111C A145C C150U U176G has a reverse-splicing fitness of 0.0162.
Work on C82G A111C A120U A145G C169G U176C yielded a reverse-splicing fitness of 0.00363.
Variant C82G A111C A120U A145G C169G U176G has a reverse-splicing fitness of 0.00194.
For C82G A111C A120U A145G C169G U176A, the reverse-splicing fitness was 0.00387.
Variant C82G A111C A120U C150U C169G U176A has a reverse-splicing fitness of 0.00503.
C82G A111C A120U C150U C169G U176G showed a reverse-splicing fitness of 0.00259.
For C82G A111C A120U C150U C169G U176C, the reverse-splicing fitness was 0.00301.
In the case of C82G A111C A145G C169A U176A, the reverse-splicing fitness is reported as 0.0222.
In the case of C82G A111C A145G C169A U176C, the reverse-splicing fitness is reported as 0.0311.
Work on C82G A111C A145G C169A U176G yielded a reverse-splicing fitness of 0.00852.
C82G A111C A145U C150G C169G gave a reverse-splicing fitness of 0.0063.
Variant C82G A111C A145U C150G C169A has a reverse-splicing fitness of 0.00796.
In the case of C82G A111C A145U C150G C169U, the reverse-splicing fitness is reported as 0.00891.
For C82G A111C A120U C169G U176G, the reverse-splicing fitness was 0.00213.
For C82G A111C A120U C169G U176C, the reverse-splicing fitness was 0.00367.
For C82G A111C A120U C169G U176A, the reverse-splicing fitness was 0.00344.
In the case of C82G A111C A120U A145U C150A C169A U176G, the reverse-splicing fitness is reported as 0.00195.
C82G A111C A120U A145U C150A C169A U176A gave a reverse-splicing fitness of 0.00336.
C82G A111C A120U A145U C150A C169A U176C showed a reverse-splicing fitness of 0.00267.
C82G A111C A120U A145U C150U U176C gave a reverse-splicing fitness of 0.013.
For C82G A111C A120U A145U C150U U176A, the reverse-splicing fitness was 0.00941.
With C82G A111C A120U A145U C150U U176G the reverse-splicing fitness was 0.00386.
Work on C82G A111C A120U A145U C150A yielded a reverse-splicing fitness of 0.00799.
C82G A111C A120U A145U C150G showed a reverse-splicing fitness of 0.00826.
For C82G A111C A120U A145U C150U, the reverse-splicing fitness was 0.0307.
C82G A111C A120U C150A U176A gave a reverse-splicing fitness of 0.00581.
C82G A111C A120U C150A U176C showed a reverse-splicing fitness of 0.00693.
With C82G A111C A120U C150A U176G the reverse-splicing fitness was 0.00333.
Work on C82G A111C A145C C150A U176C yielded a reverse-splicing fitness of 0.0188.
C82G A111C A145C C150A U176A showed a reverse-splicing fitness of 0.0144.
In the case of C82G A111C A145C C150A U176G, the reverse-splicing fitness is reported as 0.00879.
Work on C82G A111C A145C C150G U176C yielded a reverse-splicing fitness of 0.0203.
For C82G A111C A145C C150G U176A, the reverse-splicing fitness was 0.0132.
In the case of C82G A111C A145C C150G U176G, the reverse-splicing fitness is reported as 0.00447.
In the case of C82G A111C A120U A145G U176G, the reverse-splicing fitness is reported as 0.004.
In the case of C82G A111C A120U A145G U176A, the reverse-splicing fitness is reported as 0.0112.
In the case of C82G A111C A120U A145G U176C, the reverse-splicing fitness is reported as 0.0203.
Variant C82G A111C A145C C169A has a reverse-splicing fitness of 0.00847.
Work on C82G A111C A145C C169U yielded a reverse-splicing fitness of 0.0125.
Variant C82G A111C A145C C169G has a reverse-splicing fitness of 0.00898.
C82G A111C A120U C150A C169G U176C showed a reverse-splicing fitness of 0.00487.
In the case of C82G A111C A120U C150A C169G U176A, the reverse-splicing fitness is reported as 0.00466.
Work on C82G A111C A120U C150A C169G U176G yielded a reverse-splicing fitness of 0.0024.
Variant C82G A111C A120U A145G C150U C169U U176G has a reverse-splicing fitness of 0.00262.
C82G A111C A120U A145G C150U C169U U176C showed a reverse-splicing fitness of 0.00492.
In the case of C82G A111C A145U C150U C169U U176A, the reverse-splicing fitness is reported as 0.0161.
For C82G A111C A145U C150U C169U U176G, the reverse-splicing fitness was 0.00778.
Work on C82G A111C A145U C150U C169U U176C yielded a reverse-splicing fitness of 0.0115.
